Reference: US20100092505A1, “Method for Shielding Functional Sites or Epitopes on Proteins” (priority 2005, published 2010)
Where no end group is shown, it is not given here.

Columns and labels:
[1] = Isoelectric point (pI) of chimeric peptides and gp41 mimetics; type: physicochemical
[2] = disulfide-linked trimer; refers to U.S. Provisional Applications 60/576,062 and 60/636,724; cited from earlier work
guinea pigs = assay: ELISA of sera from guinea pigs immunized under homologous and heterologous Prime/Boost regimens; type: in vivo; settings: guinea pig serum; prime plus two boosts; PEGylated vaccine in both homologous and heterologous modality; QS21 adjuvant
Procedure: The Prime/Boost pair is shown below each group of bars. The ELISA geometric mean titers (GMT) against each antigen are a true reflection of the relative amount of antibodies with the corresponding specificity present in the serum.
Immunogenicity of the SMW-PEGylated vaccine—Animal studies were conducted in guinea pigs to compare the antibody response elicited by the non-PEGylated vaccine (CCIZN17)3 and the PEGylated vaccine (CCIPN17)3. The latter was used both in a homologous modality (i.e., using a priming injection with the antigen, followed by two boost injections with the same antigen) and a heterologous modality (i.e., using a priming injection with the non-PEGylated antigen (CCIZN17)3, followed by two boost injections with the PEGylated antigen (CCIPN17)3) (see FIG. 4). The PEGylated antigens were administered to the animals along with QS21 as an adjuvant (Antigenics; New York, N.Y.). Analysis of the immune response was performed by ELISA. To eliminate any bias due to differences in the absorption capacity of the antigens on the ELISA plate, all the capture antigens were biotinylated, and the ELISA plate was coated with streptavidin prior to the addition of the capture biotinylated molecules. […] This is identical in (CCIZN17)3 and (CCIPN17)3 and, accordingly, the measured GMT are identical when measured against either antigen.

patients = settings: cited from earlier work

Substance: (CCGGIEKKIEEIEKKIEEIEKKIEEIEKLLQLTVWGIKQLQARIL)3 [(CCEZN17)3]
- pI ([1]; Table 6, gp41 mimetics): 5.30

Substance: (CCGGIKKEIEAIKKEQEAIKKKIEAIEKLLQLTVWGIKQLQARIL)3 (not fully specified (N-terminus, C-terminus, bridges); printed as (CCGGIKKEIEAIKKEQEAIKKKIEAIEKLLQLTVWGIKQLQARIL)3; also: disulfide-linked trimer) [(CCIZN17)3]
- stability relative to the non-covalent IZN17 trimeric coiled-coil [2]: more stable than the original IZN17 trimeric coiled-coil
- antibody response against the scaffold moiety (ELISA GMT, capture antigens (Biotin-CCIZ)3 and (Biotin-CCIP)3) (guinea pigs): comparable amounts against the whole antigen and the scaffold moiety alone

Substance: AN-1792: Elan/Wyeth Aβ 1-42 peptide vaccine for Alzheimer disease, clinical trial discontinued
- therapeutic effect in the clinical trial (patients; patients with high titers of Aβ antibodies): reduction of plaque and some limited stabilization of memory
- adverse effect that led to discontinuation of the clinical trial (patients; patients, attributed to a T-cell response to the COOH-terminal region of Aβ): severe brain inflammation problems
- induction of antibodies specific for the pathological form of Aβ (patients; vaccinated patients): induced in the majority of patients

Substance: IEKKIEEIEKKIEEIEKKIEEIEKLLQLTVWGIKQLQARIL [EZN17]
- pI ([1]; chimeric N-peptide): 5.2

Substance: IKKEIEAIKKEQEAIKKKIEAIEKLLQLTVWGIKQLQARIL [IZN17]
- pI ([1]; chimeric N-peptide): 10.7
